From PMC13438699

Target: A/Solomon Islands/3/2006 (H1N1) HA (influenza A virus A/Solomon Islands/3/2006 (H1N1))
Assay: cryo-EM structure

A/Solomon Islands/3/2006 (H1N1) HA (natural protein)
stoichiometry N: 3
